The values that follow come from patent publication US20230220399.

The target in data set [1] is transferrin (TF) (Homo sapiens) (UniProt P02787). To be noted: ELISA, SB18, 37 C. (ELISA stands for enzyme-linked immunosorbent assay.)
Data set [2] concerns KRAS G12D G12D, P01116-2. As to conditions: ELISA, SB18, 37 C.
Data set [3] deals with human serum albumin (HSA) (Homo sapiens) (UniProt P02768). As to conditions: ELISA, SB18, 37 C.
The target in data set [4] is CD3 delta/epsilon heterodimer (UniProt P04234+P07766). To be noted: ELISA, SB18, 37 C.
Chain of CD3 delta/epsilon heterodimer (P04234 22-105, stated change not applied, chain 1 of 2): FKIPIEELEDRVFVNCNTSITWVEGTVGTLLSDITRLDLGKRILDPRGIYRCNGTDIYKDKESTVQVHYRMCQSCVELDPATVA
Chain of CD3 delta/epsilon heterodimer (P07766 23-126, stated change not applied, chain 2 of 2): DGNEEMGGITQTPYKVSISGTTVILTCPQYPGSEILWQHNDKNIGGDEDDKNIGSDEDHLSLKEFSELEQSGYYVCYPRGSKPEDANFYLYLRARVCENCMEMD
A further data set concerns KRAS G12V G12V, P01116-2. As to conditions: Nap-dU at n (6) positions [28,30,39,40,41,45,46,47,54,57]; ELISA, SB18, 37 C.
Data set [5] deals with transferrin (TF) (Homo sapiens) (UniProt P02787). To be noted: Nap-dU at n (6) positions; ELISA, SB18, 37 C.
In data set [6] the test system is KRAS G12D G12D, P01116-2. To be noted: Nap-dU at n (6) positions; ELISA, SB18, 37 C.
Data set [7] deals with KRAS G12D G12D, P01116-2. The data set can be described thus: BLI. As to conditions: Nap-dU at n (6) positions [4,9,13,19,26,27,28,30,39]; SB18, 37 C, immobilised biotin ligand.
In another data set the test system is KRAS G12C G12C, P01116-2. To be noted: Nap-dU at n (6) positions [4,9,13,19,26,27,28,30,39]; ELISA, SB18, 37 C; text p364 misprints unit/protein.
Where [8] appears, read: Nap-dU at n (6) positions [5,10,14,20,27,28,29,31,40].
[9] abbreviates: Nap-dU at n (6) positions [Nap-dU at 1,6,7,8,9,12,18,19,20,23,32].
Setting [10] is: Nap-dU at n (6) positions [Nap-dU at 5,6,7,8,11,17,18,19,22].
[11] abbreviates: Nap-dU at n (6) positions [17,23,30,31,32,44].
[12] abbreviates: Nap-dU at n (6) positions [Nap-dU at 1,6,7,8,9,12,18,19,20,23].
Setting [13] is: Nap-dU at n (6) positions [Nap-dU at 16,20,23,28,29,30,31,34,40,41,42,45,54].
[14] abbreviates: Nap-dU at n (6) positions [Nap-dU at 2,6,8,9,11,16,17,22,24,27,35].
The mark [15] stands for this setting: Nap-dU at n (6) positions [4,9,13,19,26,27,28,30,39].
The mark [16] stands for this setting: Nap-dU at n (6) positions [22,28,35,36,37,49].
Setting [17] is: Nap-dU at n (6) positions [Nap-dU at 3,6,11,12,13,14,17,23,24,25,28,37].

Where two headings read alike, the source gives them in different places.

Chain of transferrin (TF) (Homo sapiens) (P02787 20-698): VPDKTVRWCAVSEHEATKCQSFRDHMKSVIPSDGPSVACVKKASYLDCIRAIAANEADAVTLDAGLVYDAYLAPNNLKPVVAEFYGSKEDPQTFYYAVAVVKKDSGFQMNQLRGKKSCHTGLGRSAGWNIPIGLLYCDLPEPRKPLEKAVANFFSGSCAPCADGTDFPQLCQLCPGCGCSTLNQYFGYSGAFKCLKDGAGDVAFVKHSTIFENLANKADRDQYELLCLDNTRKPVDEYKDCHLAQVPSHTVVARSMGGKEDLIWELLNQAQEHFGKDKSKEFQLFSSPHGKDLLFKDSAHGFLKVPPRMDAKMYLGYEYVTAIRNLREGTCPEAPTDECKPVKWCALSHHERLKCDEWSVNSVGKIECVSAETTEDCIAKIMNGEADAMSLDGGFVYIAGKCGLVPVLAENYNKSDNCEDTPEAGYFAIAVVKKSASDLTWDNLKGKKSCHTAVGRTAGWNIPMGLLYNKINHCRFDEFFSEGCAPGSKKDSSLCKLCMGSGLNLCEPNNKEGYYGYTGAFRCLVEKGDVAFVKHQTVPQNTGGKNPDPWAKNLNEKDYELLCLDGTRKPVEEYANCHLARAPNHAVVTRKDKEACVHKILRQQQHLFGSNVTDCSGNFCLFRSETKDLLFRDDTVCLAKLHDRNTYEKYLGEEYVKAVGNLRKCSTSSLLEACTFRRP

What is called Kd is a measure of binding affinity in units of concentration. With “GGACTAGCATAAGTCCGGATGGCAGCTTTATGCCGACCAT [TD003]”, the dissociation constant (Kd) in data set [1] (setting [8]) was found to be 141 nM; in the data set with KRAS G12D G12D, P01116-2 [2] (setting [8]), 2720 nM.

Consider “TGCCCTTTTAATCCGACTTTAATGGCCACGCTCAC [AA004]”, for which the Kd in data set [3] (setting [9]) is 9.54 nM; in data set [4] (setting [9]), 10.2 nM.

Consider GCCCTTTTAATCCGACTTTAAT [AA007], for which the dissociation constant (Kd) in data set [3] (setting [10]) was 2.03 nM; in data set [4] (setting [10]) it was 15.1 nM.

As for “ACCGTCTGCCTGAAAGTCCGGATGGCAGCTTTACAGGCAGAACTAACG [TD007]”, the dissociation constant Kd in data set [1] (setting [11]) came to 431 nM; in the data set with KRAS G12D G12D, P01116-2 [2] (setting [11]) it was 2120 nM.

Consider TGCCCTTTTAATCCGACTTTAATGGC [AA006], for which the equilibrium dissociation constant (Kd) in [3] (setting [12]) came to 15.5 nM; in data set [4] (setting [12]), 14.3 nM.

On to “GAGTGACCGTCTGCCTGAGCAGGAGGATGTGACACAACTTTGCATTTCAAGCCTGATCAGCCACACCACCAGCC [AV001]”, for which the dissociation constant Kd is 11.2 nM in data set [3] (Nap-dU at n (6) positions [28,30,39,40,41,45,46,47,54,57]) and 58 nM in the data set on KRAS G12V G12V, P01116-2.

Turning to “GAGTGACCGTCTGCCTGGATCCTGCCCTTTTAATCCGACTTTAATGGCCACGCTCACCAGCCACACCACCAGCC [AA001]”, the Kd in data set [3] (setting [13]) came to 9.62 nM; in data set [4] (setting [13]) it was 3.17 nM.

As for “CAGGNCGAGCNGNACGCGNGNGNGACCNGAAGAC [TD013]”, the dissociation constant Kd was 646 nM in data set [5] and 1550 nM in the data set on KRAS G12D G12D, P01116-2 [6].

For “ATGCCTCTTCTGCAGTTACGGTGTGATCGCCCAATAGCAGCCAC [TD012]”, the Kd stood at 14.9 nM in data set [1] (setting [14]) and 1310 nM in the data set with KRAS G12D G12D, P01116-2 [2] (setting [14]).

TGCCCTTTTAATCCGACTTTAATGGCCACG [AA005]: the Kd in data set [3] (setting [12]) was determined as 8.27 nM; in [4] (setting [12]) it was 39.4 nM.

For “GACTAGCATAAGTCCGGATGGCAGCTTTATGCCGACCAT [AD005]”, the Kd amounted to 35.5 nM with KRAS G12D G12D, P01116-2 [7]; 2.5 nM in the data set with KRAS G12C G12C, P01116-2; 22.9 nM in the data set with KRAS G12D G12D, P01116-2 [2] (setting [15]); 122 nM in [3] (setting [15]).

Take “GAGTGACCGTCTGCCTGAAAGTCCGGATGGCAGCTTTACAGGCAGAACTAACG [TD006]”: the Kd is 968 nM in [1] (setting [16]) and 628 nM with KRAS G12D G12D, P01116-2 [2] (setting [16]).

In the case of “GATCCTGCCCTTTTAATCCGACTTTAATGGCCACGCTCAC [AA003]”, the Kd in data set [3] (setting [17]) turned out to be 4.32 nM; in data set [4] (setting [17]) it was 7.63 nM.
